According to PMC5097833 (Chemico-biological interactions, 2015):

B1: mouse anti-human BChE monoclonal antibody B2 12-1 (antibody, V domains shown)
VH: EVQLQQSGPELVKPGASVKISCKASGYTFTDYSMHWVKLSHGKSLEWIGYIYPYNDDTDYNQKFKTKATLTVDSSSSITYLELRSLTSEDSAVYYCARSDGYSYYFDYWGQGTTLTVSS
VL: DIVMTQSPATLSVTPGDRVSLSCRASQSISDYLHWYQQKSHESPRLLIKYASQSISGIPSRFSGGGSGSDFTLSINSVEPEDVGVYYCQNGHRFPLTFGAGTKLELK
B2: mouse anti-human BChE monoclonal antibody 11D8 (antibody, V domains shown)
VH: QVQLQQSGAELARPGASVKLSCKASGYTFTSQWLQWVKQRPGQGLEWIGAIYPGDGDTRYTQKFKGKATLTADKSSSTAYMQLTNLAPEDSAVYYCARSSMDYWGQGTSVTVSS
VL: DILLTQSPAILSVSPGERVRLSCRASQSCGTSIYWYQQRTNGSPRLLIMYASEPFSGIPSRFSGSGSGTDFTLSINSVESEDIADYYCQQSNSWPWTFGGGTRLEIK

Biological target: human butyrylcholinesterase (human (endogenous in plasma), UniProt P06276)
Assay: pull-down

human butyrylcholinesterase, sequence (P06276 29-602): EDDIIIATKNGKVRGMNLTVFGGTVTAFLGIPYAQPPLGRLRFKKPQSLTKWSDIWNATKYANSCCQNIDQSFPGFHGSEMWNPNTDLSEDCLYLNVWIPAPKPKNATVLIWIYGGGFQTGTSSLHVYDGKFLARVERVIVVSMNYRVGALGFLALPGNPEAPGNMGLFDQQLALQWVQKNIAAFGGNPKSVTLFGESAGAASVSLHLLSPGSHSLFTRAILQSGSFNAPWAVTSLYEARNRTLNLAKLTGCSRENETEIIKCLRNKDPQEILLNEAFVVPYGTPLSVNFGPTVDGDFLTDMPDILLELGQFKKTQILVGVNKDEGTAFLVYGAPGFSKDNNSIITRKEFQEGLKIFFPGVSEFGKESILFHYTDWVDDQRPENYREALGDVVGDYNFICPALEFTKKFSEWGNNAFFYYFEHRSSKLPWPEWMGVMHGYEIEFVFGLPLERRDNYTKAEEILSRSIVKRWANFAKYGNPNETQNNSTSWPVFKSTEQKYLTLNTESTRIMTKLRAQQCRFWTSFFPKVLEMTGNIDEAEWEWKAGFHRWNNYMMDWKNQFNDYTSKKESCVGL

Binder	binding result
B1	binds
B2	binds
